Data on four molecules can be found in article PMC2877716, “Genome-Wide Identification of Calcium-Response Factor (CaRF) Binding Sites Predicts a Role in Regulation of Neuronal Signaling Pathways”.

In data set [1] the target is T1, CaRF (E. coli) (Mus musculus (Methods); human per Fig 2 …, UniProt Q8VHI4 1-689).
T1 sequence: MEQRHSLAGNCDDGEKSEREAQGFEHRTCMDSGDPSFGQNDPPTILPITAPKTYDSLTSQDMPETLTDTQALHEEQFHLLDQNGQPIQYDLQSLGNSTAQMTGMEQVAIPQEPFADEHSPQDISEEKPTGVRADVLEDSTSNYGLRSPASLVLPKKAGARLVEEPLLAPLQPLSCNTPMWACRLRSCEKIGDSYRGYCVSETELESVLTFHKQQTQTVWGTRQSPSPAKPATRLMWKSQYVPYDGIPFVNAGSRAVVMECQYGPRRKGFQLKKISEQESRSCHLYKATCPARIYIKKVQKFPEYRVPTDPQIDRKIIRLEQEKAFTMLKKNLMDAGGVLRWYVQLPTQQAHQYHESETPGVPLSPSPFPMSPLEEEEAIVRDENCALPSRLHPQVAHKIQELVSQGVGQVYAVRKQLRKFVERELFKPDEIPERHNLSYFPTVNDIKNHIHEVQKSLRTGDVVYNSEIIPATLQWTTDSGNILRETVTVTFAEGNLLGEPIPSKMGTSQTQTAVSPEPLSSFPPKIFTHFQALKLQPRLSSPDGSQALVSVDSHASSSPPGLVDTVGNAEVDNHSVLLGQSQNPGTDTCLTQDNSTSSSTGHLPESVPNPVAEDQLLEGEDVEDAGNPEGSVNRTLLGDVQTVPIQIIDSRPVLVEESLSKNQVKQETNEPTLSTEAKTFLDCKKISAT
Kind of data set: competition; CaRE1 probe, 50-fold excess; EMSA: 2 uL TNT or purified CaRF with 50 fmol 32P probe, 6% non-denaturing gel; competitors 50-150-fold excess, 30 min pre-incubation; buffer, pH and temperature not stated (cited ref 14). To be noted: protein: recombinant; blunt. On the technique in general: Mobility shift assays separate free from complexed probe on a gel.

Data set [2] has as its target T2, CaRF (TNT) (Homo sapiens, UniProt Q8N187 1-725).
T2 sequence: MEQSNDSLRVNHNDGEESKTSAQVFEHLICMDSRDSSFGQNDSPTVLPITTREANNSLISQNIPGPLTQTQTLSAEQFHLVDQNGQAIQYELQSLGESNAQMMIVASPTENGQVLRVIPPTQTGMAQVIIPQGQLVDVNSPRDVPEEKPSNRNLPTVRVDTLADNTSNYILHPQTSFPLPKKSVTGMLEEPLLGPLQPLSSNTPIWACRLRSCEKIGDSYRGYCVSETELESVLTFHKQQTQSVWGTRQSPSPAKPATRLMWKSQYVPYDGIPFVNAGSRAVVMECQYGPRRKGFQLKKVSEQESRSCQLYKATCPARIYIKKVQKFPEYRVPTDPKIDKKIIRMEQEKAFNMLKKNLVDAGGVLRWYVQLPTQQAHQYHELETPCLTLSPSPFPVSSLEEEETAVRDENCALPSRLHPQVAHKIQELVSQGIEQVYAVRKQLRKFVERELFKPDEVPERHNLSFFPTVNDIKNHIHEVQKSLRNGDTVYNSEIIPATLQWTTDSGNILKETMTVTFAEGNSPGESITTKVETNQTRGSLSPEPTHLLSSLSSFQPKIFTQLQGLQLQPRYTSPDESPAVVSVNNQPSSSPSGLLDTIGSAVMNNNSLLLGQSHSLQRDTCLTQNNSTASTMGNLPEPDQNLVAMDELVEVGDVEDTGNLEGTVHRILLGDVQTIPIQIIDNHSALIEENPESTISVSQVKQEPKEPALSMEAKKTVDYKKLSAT
The description is as above. To be noted: protein: ivt; tags: N-terminal FLAG (DYKDDDDK); blunt.

Data set [3] concerns the target T3, recombinant CaRF (Figs 5 and 6) (UniProt Q8VHI4 1-689).
T3 sequence: T1 sequence
Kind of data set: competition; camCaRE probe, 50-100-fold excess; EMSA: 2 uL TNT or purified CaRF with 50 fmol 32P probe, 6% non-denaturing gel; competitors 50-150-fold excess, 30 min pre-incubation; buffer, pH and temperature not stated (cited ref 14). To be noted: protein: recombinant; blunt.

Data set [4] deals with T3, recombinant CaRF (Figs 5 and 6). Kind of data set: competition; cCaRE probe, 100-fold excess; higher affinity than CaRF1; EMSA: 2 uL TNT or purified CaRF with 50 fmol 32P probe, 6% non-denaturing gel; competitors 50-150-fold excess, 30 min pre-incubation; buffer, pH and temperature not stated (cited ref 14). The settings on record: protein: recombinant; blunt.
For data set [5] the target is unchanged. Nature of the data set: EMSA; EMSA: 2 uL TNT or purified CaRF with 50 fmol 32P probe, 6% non-denaturing gel; competitors 50-150-fold excess, 30 min pre-incubation; buffer, pH and temperature not stated (cited ref 14). The settings on record: protein: recombinant; label: 32P when probe; blunt.
Data set [6] addresses T1, CaRF (E. coli). Described as above. To be noted: protein: recombinant; label: 32P when probe; blunt.
The target of data set [7] is T2, CaRF (TNT). Described as above. The settings on record: protein: ivt; tags: N-terminal FLAG (DYKDDDDK); label: 32P when probe; blunt.

B1: mCaRE1 (mCaRE) (dsDNA)
DNA 1: GAGTGTCTTCCGCCAGGCAGAGGAGG
DNA 2: CCTCCTCTGCCTGGCGGAAGACACTC
With B1, the binding result in data set [1], in data set [2] and in data set [3] was “no binding” in each case.

B2: CaRF2 (dsDNA)
DNA 1: TGAGTAGTCTCGTTTTGAATTTTCTCC
DNA 2: GGAGAAAATTCAAAACGAGACTACTCA
As to B2, the binding result in data set [4] is on record as “binds”.

B3: camCaRE (dsDNA)
DNA 1: TCAAAGCGAGGCAGA
DNA 2: TCTGCCTCGCTTTGA
With B3, the binding result in data set [5] is “binds”.

B4: CaRE1 (dsDNA)
DNA 1: GAGTGTCTATTTCGAGGCAGAGGAGG
DNA 2: CCTCCTCTGCCTCGAAATAGACACTC
Take B4: the binding result in data set [6] and in data set [7] was “binds” throughout.
